How the values were obtained:
Assay in all cases: coupled pyruvate kinase / lactate dehydrogenase assay, NADH oxidation at A340
Type in all cases: biochemical, Arabidopsis thaliana
Details in all cases: 50 mM Tris pH 7.5, 100 mM KCl, 10 mM MgCl2, 1 mM fructose, 10 mM phosphate, Michaelis-Menten fit
[1] = substrate: Nc1ncnc2c1ncn2[C@@H]1O[C@H](COP(=O)(O)OP(=O)(O)OP(=O)(O)O)[C@@H](O)[C@H]1O
Description: coupled pyruvate kinase / lactate dehydrogenase assay, NADH oxidation at A340 on FRK1

[2] = substrate: Nc1ncnc2c1ncn2[C@@H]1O[C@H](COP(=O)(O)OP(=O)(O)OP(=O)(O)O)[C@@H](O)[C@H]1O; remark: listed apart in the source
Description: coupled pyruvate kinase / lactate dehydrogenase assay, NADH oxidation at A340 on FRK2

[3] = substrate: Nc1ncnc2c1ncn2[C@@H]1O[C@H](COP(=O)(O)OP(=O)(O)OP(=O)(O)O)[C@@H](O)[C@H]1O; remark: listed apart in the source
Description: coupled pyruvate kinase / lactate dehydrogenase assay, NADH oxidation at A340 on FRK3

[4] = substrate: Nc1ncnc2c1ncn2[C@@H]1O[C@H](COP(=O)(O)OP(=O)(O)OP(=O)(O)O)[C@@H](O)[C@H]1O; remark: listed apart in the source
Description: coupled pyruvate kinase / lactate dehydrogenase assay, NADH oxidation at A340 on FRK4

[5] = substrate: Nc1ncnc2c1ncn2[C@@H]1O[C@H](COP(=O)(O)OP(=O)(O)OP(=O)(O)O)[C@@H](O)[C@H]1O; remark: listed apart in the source
Description: coupled pyruvate kinase / lactate dehydrogenase assay, NADH oxidation at A340 on FRK5

[6] = substrate: Nc1ncnc2c1ncn2[C@@H]1O[C@H](COP(=O)(O)OP(=O)(O)OP(=O)(O)O)[C@@H](O)[C@H]1O; remark: listed apart in the source
Description: coupled pyruvate kinase / lactate dehydrogenase assay, NADH oxidation at A340 on FRK6

B1: FRK1 (Arabidopsis thaliana) (protein)
chain: MGEDAISGNLKNLTIDTRDSETLVVCFGEMLIDFVPTVGGVSLAEAPAFKKAPGGAPANVAVGVSRLGGSSAFIGKVGDDEFGRMLADILRLNNVDNSGMRFDHNARTALAFVTLRGDGEREFLFFRHPSADMLLLESELDKNLIQKAKIFHYGSISLIEEPCRSTQLVAMKIAKAAGSLLSYDPNLRLPLWPSEEAARKEIMSIWNLADVIKISEDEITFLTGGDDPYDDDVVLQKLFHPNLKLLVVSEGPNGCRYYTQEFKGRVGGVKVKPVDTTGAGDAFVSGLLNSLASDLTLLKDEKKLREALLFANACGAITVTERGAIPAMPSMDAVQDLLSSTRS
Km [1]: 52 ± 7.8 µM
kcat [1]: 14.2 s⁻¹

B2: FRK2 (Arabidopsis thaliana) (protein)
chain: MASNGDKGLIVSFGEMLIDFVPTESGVSLAEAPGFLKAPGGAPANVAIAVSRLGGRSAFVGKLGDDEFGHMLAGILRKNGVDDQGINFDTGARTALAFVTLRADGDREFMFYRNPSADMLLRPDELNLDLIRSAKVFHYGSISLIVEPCRSAHLKAMEVAKEAGALLSYDPNLREPLWPSKEEAKTQIMSIWDKAEIIKVSDVELEFLTGSNKIDDETALTLWHPNLKLLLVTLGEKGCRYYTKTFKGAVDPFHVNAVDTTGAGDSFVGALLNQIVDDRSVLEDEERLRKVLRFANACGAITTTKKGAIPALPSDAEVRSFLEKK
Km [2]: 85 ± 8.7 µM
kcat [2]: 10.3 s⁻¹

B3: FRK3 (Arabidopsis thaliana) (protein)
chain: SNLKGRALSSDGSTQESPYVVCFGEMLIDFVPTTSGLSLADAPAFKKAPGGAPANVAVGIARLGGSSAFIGKVGEDEFGYMLANILKDNNVNNDGMRFDPGARTALAFVTLTNEGEREFMFYRNPSADMLLEESELDFDLIKKAKIFHYGSISLITEPCKSAHISAAKAAKEAGVILSYDPNLRLPLWPSADNAREEILSIWETADIIKISEEEIVFLTKGEDPYDDNVVRKLFHPKLKLLLVTEGPEGCRYYTKDFSGRVHGLKVDVVDTTGAGDAFVAGILSQLANDLSLLQDEERLREALMFANACGALTVKVRGAIPALPTKEAVHEALLKAVV
Km [3]: 52 ± 9.8 µM
kcat [3]: 14.3 s⁻¹

B4: FRK4 (Arabidopsis thaliana) (protein)
chain: MANTPLIVSFGEMLIDFVPDTSGVSLAESTGFLKAPGGAPANVACAITKLGGKSAFIGKFGDDEFGHMLVNILKKNGVNSEGVCFDTNARTALAFVTLKKDGEREFMFYRNPSADMLLKESELNKDLIKKAKIFHYGSISLISEPCRTAHMAAMKTAKDAGVLLSYDPNVRLPLWPSTEAAIEGIKSIWNEADIIKVSDDEVTFLTRGDAEKDDVVLSLMHDKLKLLIVTDGEKGCRYYTKKFKGRVPGYAVKAVDTTGAGDSFVGAFLVSLGKDGSILDDEGKLKEALAFANACGAVCTTQKGAIPALPTPADAQKLMKSKSK
Km [4]: 95 ± 7.9 µM
kcat [4]: 11.1 s⁻¹

B5: FRK5 (Arabidopsis thaliana) (protein)
chain: MASSTGEKGLIVSFGEMLIDFVPTVSGVSLSESPGFLKAPGGAPANVAIAVSRLGGRAAFVGKLGDDDFGHMLAGILRKNGVDDQGINFDEGARTALAFVTLRSDGEREFMFYRNPSADMLLRPDELNLELIRSAKVFHYGSISLITEPCRSAHMKAMEVAKEAGALLSYDPNLREPLWPSPEEARTQIMSIWDKADIIKVSDVELEFLTENKTMDDKTAMSLWHPNLKLLLVTLGEKGCTYFTKKFHGSVETFHVDAVDTTGAGDSFVGALLQQIVDDQSVLEDEARLRKVLRFANACGAITTTKKGAIPALPTDIEALSFLKDQKKRQTNLKFSKWCCTASPC
Km [5]: 180 ± 57 µM
kcat [5]: 4.8 s⁻¹

B6: FRK6 (Arabidopsis thaliana) (protein)
chain: MTSSNGDNKGLVVSFGEMLIDFVPTESGVSLSESSGFLKAPGGAPANVAIAVSRLGGRAAFVGKLGDDEFGHMLAGILRKNDVDDQGINFDKGARTALAFVTLRSDGEREFMFYRNPSADMLLRPDELNLELIRSAKVFHYGSISLITEPCRSAHMKAMEVAKEAGALLSYDPNLREPLWPSPEEARKQIMSIWDKADIIKVSDVELEFLTGNKTIDDETAMSLWHPNLKLLLVTLGENGCRYYTKDFHGSVETFHVDAVDTTGAGDSFVGALLNQIVDDQSVLEEEERLRKVLRFANACGAITTTKKGAIPALPTDCEALSFLKIQVE
Km [6]: 160 ± 21 µM
kcat [6]: 12.8 s⁻¹

— publication PMC5405513, “Identification and biochemical characterization of the fructokinase gene family in Arabidopsis thaliana” (BMC Plant Biology, 2017)
